Experimental data from patent US10704056B2, “Constitutively active ABA receptor mutants” (The Regents of the University of California, priority 2011, dated 2020).
Positions count from the first letter of the chain named. Names may count otherwise. Values belong to the molecule of their own block, whether it stands above or below them.

Test system: HAB1
Experiment: In vitro PP2C phosphatase (pNPP) receptor activation assay with HAB1
Format: biochemical, Arabidopsis
Settings: 600 nM GST-HAB1, 0-4800 nM receptor, no ABA
Procedure: Recombinant receptor proteins were produced as follows: Coding sequences were cloned into pET28 yielding 6×HIS (SEQ ID NO:173) fusions proteins and transformed into E. coli expression strain BL21. […]. Cells were stored at −80° C. before purification. After thawing, cells were sonicated on ice five times for 30 sec with 30 sec resting intervals. A cleared lysate was obtained after centrifugation at 12,000×g for 10 min and applied to 1 ml of Ni-NTA column (Qiagen) and washed with 20 column volumes of Buffer A containing 30 mM imidazole. Bound protein was eluted with 10 ml of Buffer A with 250 mM imidazole. The elutate was dialyzed against TBS. The purified recombinant proteins were then used together with recombinant phosphatases in receptor assays. In these assays, receptor activity is indicated by inhibition of phosphatase activity, as inferred from initial reaction velocities for GST-HAB1 mediated hydrolysis of the synthetic phosphatase substrate pNPP. Reactions contained 600 nM GST-HAB1 and either 0, 600, 1200, 2400 or 4800 nM 6×His-PYR1 or variants in a reaction buffer consisting of 33 mM Tris-OAc, pH 7.9, 66 mM KOAc, 0.1% BSA, 25 mM Mn(OAc)2, 50 mM pNPP. To infer the level of receptor activation with respect to fully activated wild type receptor, control reactions were also conducted using saturating levels of (+)-ABA (10 μM), and 600 nM wild type PYR1 and HAB1. Immediately after mixing proteins and substrates, reactions were monitored for hydrolysis of pNPP at A405 at ˜10 second intervals over 20 minutes using a Wallac plate reader. Reaction progressions were plotted, initial velocities calculated and converted to specific activities using a standard curve for 4-nitrophenol made in the same buffer system volumes/plate reader used for enzymatic reaction measurements. The values shown are expressed as %-control phosphatase activity levels as measured in the absence of receptor protein. The average specific activity level of GST-HAB1 utilized in our experiments was 4000 μmol/min/mg, when assayed on the phosphatase substrate pNPP in the absence of PYR1 or other receptors, as described using the methods above.
Full length ABI1 and ABI2 were cloned into a modified pSUMO vector (LifeSensors Inc, USA) vector yielding 6×His-SUMO fusion proteins; GST-HAB1 was expressed and purified as previously described (Park et al., 2009). Mutant receptors were cloned into pET28 yielding 6×His-fusion proteins. […]. The cultures were pre-incubated 2 hours at 30° C. and, for PP2C expression, media was supplemented with 4 mM MnCl2 one hour after inoculation. After pre-incubation, IPTG was added (1 mM) and cells were induced at 15° C. for 16 hours, after which they were collected by centrifugation, resuspended in 5 ml Buffer A (50 mM NaH2PO4, 300 mM NaCl) +10 mM imidazole, pH 8.0 and stored at −80° C. For purification, cells were thawed, sonicated on ice (60 seconds) and a cleared lysate was then applied a 1 ml-bed volume column of Ni-NTA (Qiagen, USA), washed with 20 column volumes of Buffer A+30 mM imidazole and bound protein eluted with 1 ml of Buffer A+250 mM imidazole. For receptors, the elutate was dialyzed against TBS and for PP2Cs, fusion proteins were desalted by passage over a Sephadex G50 column.
The purified receptors and phosphatases were then used in receptor assays where receptor activation is indicated by inhibition of phosphatase activity, as inferred from initial reaction velocities for PP2C-mediated hydrolysis of the synthetic phosphatase substrate pNPP in reactions containing 600 nM PP2C and either 0, 600, 1200, 2400 or 4800 nM receptor. The receptor assay buffer consisted of 33 mM Tris-OAc, pH 7.9, 66 mM KOAc, 0.1% BSA, 25 mM Mn(OAc)2, 0.1%13-ME and 50 mM pNPP. Immediately after mixing proteins and substrates, reactions were monitored for hydrolysis of pNPP at A405 at ˜2 minutes intervals using a Wallac plate reader. […]

B4: PYR1^CA4B: PYR1 quadruple mutant (V83F, M158I, F159V, K170W) (protein)
chain: HHHHHHMPSELTPEERSELKNSIAEFHTYQLDPGSCSSLHAQRIHAPPELVWSIVRRFDKPQTYKHFIKSCSVEQNFEMRVGCTRDVIFISGLPANTSTERLDILDDERRVTGFSIIGGEHRLTNYKSVTTVHRFEKENRIWTVVLESYVVDMPEGNSEDDTRIVADTVVKLNLQWLATVAEAMARNSGDGSGSQVT
- basal receptor activity (inhibition of HAB1 phosphatase activity in the absence of ABA): dramatically increased basal PYR1 activity

B5: PYR1^CAc: PYR1 quadruple mutant (H60P, A89W, M158I, F159V) (protein)
chain: B4 chain with H66P, F89V, A95W, W176K
- basal receptor activity (inhibition of HAB1 phosphatase activity in the absence of ABA): dramatically increased basal PYR1 activity

B8: A89W: PYR1 receptor mutant with amino acid substitution A89W (protein)
chain: MPSELTPEERSELKNSIAEFHTYQLDPGSCSSLHAQRIHAPPELVWSIVRRFDKPQTYKHFIKSCSVEQNFEMRVGCTRDVIVISGLPWNTSTERLDILDDERRVTGFSIIGGEHRLTNYKSVTTVHRFEKENRIWTVVLESYVVDMPEGNSEDDTRMFADTVVKLNLQKLATVAEAMARNSGDGSGSQVT
modifications: synthetic mutated PYR/PYL receptor polypeptide PYR1 A89W
- basal receptor activity (inhibition of HAB1 phosphatase activity in the absence of ABA): increase basal activity of receptors

B9: M158I: PYR1 receptor mutant with amino acid substitution M158I (protein)
chain: B8 chain with W89A, M158I
modifications: synthetic mutated PYR/PYL receptor polypeptide PYR1 M158I
- basal receptor activity (inhibition of HAB1 phosphatase activity in the absence of ABA): increase basal activity of receptors

B10: T162F: PYR1 receptor mutant with amino acid substitution T162F (protein)
chain: B8 chain with W89A, T162F
modifications: synthetic mutated PYR/PYL receptor polypeptide PYR1 T162F
- basal receptor activity (inhibition of HAB1 phosphatase activity in the absence of ABA): increase basal activity of receptors

B11: H60P: PYR1 (SEQ ID NO:1) receptor mutant with amino acid substitution H60P (protein, listed as Arabidopsis thaliana)
chain: B8 chain with H60P, W89A
modifications: thale cress PYR/PYL receptor, Pyrabactin resistance 1, abscisic acid receptor PYR1 (PYR1), ABI1-binding protein 6 (ABIP6), regulatory components of ABA receptor 11 (RCAR11), At4g17870, T6K21.50
- basal receptor activity (inhibition of HAB1 phosphatase activity in the absence of ABA): increase basal activity of receptors

B12: F159V: PYR1 receptor mutant with amino acid substitution F159V (protein)
chain: B8 chain with W89A, F159V
modifications: synthetic mutated PYR/PYL receptor polypeptide PYR1 F159V
- basal receptor activity (inhibition of HAB1 phosphatase activity in the absence of ABA): increase basal activity of receptors

B13: V83F: PYR1 receptor mutant with amino acid substitution V83F (protein)
chain: B8 chain with V83F, W89A
modifications: synthetic mutated PYR/PYL receptor polypeptide PYR1 V83F
- basal receptor activity (inhibition of HAB1 phosphatase activity in the absence of ABA): increase basal activity of receptors

B14: I84Q: PYR1 receptor mutant with amino acid substitution I84Q (protein)
chain: B8 chain with I84Q, W89A
modifications: synthetic mutated PYR/PYL receptor polypeptide PYR1 I84Q
- basal receptor activity (inhibition of HAB1 phosphatase activity in the absence of ABA): increase basal activity of receptors

The next lines start with the values.

- basal receptor activity (inhibition of HAB1 phosphatase activity in the absence of ABA): highly activated in the absence of ABA
B1: PYL9^CA4C: PYL9 mutant (A91W, Y160I, F161V) (protein)
chain: HHHHHHMMDGVEGGTAMYGGLETVQYVRTHHQHLCRENQCTSALVKHIKAPLHLVWSLVRRFDQPQKYKPFVSRCTVIGDPEIGSLREVNVKSGLPWTTSTERLELLDDEEHILGIKIIGGDHRLKNYSSILTVHPEIIEGRAGTMVIESFVVDVPQGNTKDETCIVVEALIRCNLKSLADVSERLASQDITQ

- basal receptor activity (inhibition of HAB1 phosphatase activity in the absence of ABA): are not full CA receptors
B2: PYL10: wild-type ABA receptor PYL10 (SEQ ID NO:11) (protein, listed as Arabidopsis thaliana)
chain: MNGDETKKVESEYIKKHHRHELVESQCSSTLVKHIKAPLHLVWSIVRRFDEPQKYKPFISRCVVQGKKLEVGSVREVDLKSGLPATKSTEVLEILDDNEHILGIRIVGGDHRLKNYSSTISLHSETIDGKTGTLAIESFVVDVPEGNTKEETCFFVEALIQCNLNSLADVTERLQAESMEKKI
modifications: thale cress PYR/PYL receptor, abscisic acid receptor PYL10, PYR1-like protein 10 (PYL10), ABI1-binding protein 8 (ABIP8), regulatory components of ABA receptor 4 (RCAR4), At4g27920, T13J8.30

- basal receptor activity (inhibition of HAB1 phosphatase activity in the absence of ABA): highly activated in the absence of ABA
B3: PYL2^CA4C: PYL2 mutant (H65P, A93W, M1641, F165V) (protein)
chain: HHHHHHMSSSPAVKGLTDEEQKTLEPVIKTYHQFEPDPTTCTSLITQRIHAPASVVWPLIRRFDNPERYKPFVKRCRLISGDGDVGSVREVTVISGLPWSTSTERLEFVDDDHRVLSFRVVGGEHRLKNYKSVTSVNEFLNQDSGKVYTVVLESYTVDIPEGNTEEDTKIVVDTVVKLNLQKLGVAATSAPMHDDE

- basal receptor activity (inhibition of HAB1 phosphatase activity in the absence of ABA): are not full CA receptors
B6: PYL6: wild-type ABA receptor PYL6 (SEQ ID NO:7) (protein, listed as Arabidopsis thaliana)
chain: MPTSIQFQRSSTAAEAANATVRNYPHHHQKQVQKVSLTRGMADVPEHVELSHTHVVGPSQCFSVVVQDVEAPVSTVWSILSRFEHPQAYKHFVKSCHVVIGDGREVGSVREVRVVSGLPAAFSLERLEIMDDDRHVISFSVVGGDHRLMNYKSVTTVHESEEDSDGKKRTRVVESYVVDVPAGNDKEETCSFADTIVRCNLQSLAKLAENTSKFS
modifications: thale cress PYR/PYL receptor, abscisic acid receptor PYL6, PYR1-like protein 6 (PYL6), ABI1-binding protein 5 (ABIP5), regulatory components of ABA receptor 9 (RCAR9), Bet v I allergen family protein, At2g40330, T7M7.15

- basal receptor activity (inhibition of HAB1 phosphatase activity in the absence of ABA): increase basal activity of receptors
B7: K170W: PYR1 receptor mutant with amino acid substitution K170W (protein)
chain: B8 chain with W89A, K170W
modifications: synthetic mutated PYR/PYL receptor polypeptide PYR1 K170W
